Measurements from PMC6754456, “A processive endoglucanase with multi-substrate specificity is characterized from porcine gut microbiota” (Scientific Reports, 2019).

Test system: O=[N+]([O-])c1ccc(O[C@@H]2O[C@H](CO)[C@@H](O[C@@H]3O[C@H](CO)[C@@H](O)[C@H](O)[C@H]3O)[C@H](O)[C@H]2O)cc1
Experiment: purified protein
Details: 100 mM MES pH 6.0, 50 °C, 10 min

p4818Cel5_2A (uncultured bacterium)
Km: 1200 ± 100 µM
kcat: 1.63 ± 0.0583 s⁻¹
kcat/Km: 1350 M⁻¹ s⁻¹
